Assay results from patent US20230331811A1, “IMMOBILIZED SELF-ASSEMBLED PROTEIN MULTIMERS” (CCOA THERAPEUTICS INC., priority 2020, published 2023).

Target: T1, fibrinogen (Homo sapiens, UniProt P02671+P02675+P02679)
T1 sequence (P02671 20-629 limits assumed): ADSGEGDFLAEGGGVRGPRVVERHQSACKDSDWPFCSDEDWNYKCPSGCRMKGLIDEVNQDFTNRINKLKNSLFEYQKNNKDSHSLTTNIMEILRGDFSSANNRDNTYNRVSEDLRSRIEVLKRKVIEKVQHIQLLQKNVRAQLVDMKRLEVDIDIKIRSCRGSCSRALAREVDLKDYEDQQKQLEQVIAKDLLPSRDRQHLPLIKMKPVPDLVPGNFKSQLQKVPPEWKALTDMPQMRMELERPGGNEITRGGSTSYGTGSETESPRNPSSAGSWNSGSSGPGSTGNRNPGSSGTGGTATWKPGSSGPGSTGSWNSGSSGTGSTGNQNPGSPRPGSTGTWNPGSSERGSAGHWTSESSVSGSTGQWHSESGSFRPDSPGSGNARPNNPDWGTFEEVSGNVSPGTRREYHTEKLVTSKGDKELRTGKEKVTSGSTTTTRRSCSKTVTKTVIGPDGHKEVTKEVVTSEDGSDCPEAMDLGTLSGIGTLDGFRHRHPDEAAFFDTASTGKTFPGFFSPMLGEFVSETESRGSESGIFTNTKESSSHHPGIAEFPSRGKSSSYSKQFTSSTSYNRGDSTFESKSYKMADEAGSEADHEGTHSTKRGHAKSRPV
T1 sequence (P02675 31-491): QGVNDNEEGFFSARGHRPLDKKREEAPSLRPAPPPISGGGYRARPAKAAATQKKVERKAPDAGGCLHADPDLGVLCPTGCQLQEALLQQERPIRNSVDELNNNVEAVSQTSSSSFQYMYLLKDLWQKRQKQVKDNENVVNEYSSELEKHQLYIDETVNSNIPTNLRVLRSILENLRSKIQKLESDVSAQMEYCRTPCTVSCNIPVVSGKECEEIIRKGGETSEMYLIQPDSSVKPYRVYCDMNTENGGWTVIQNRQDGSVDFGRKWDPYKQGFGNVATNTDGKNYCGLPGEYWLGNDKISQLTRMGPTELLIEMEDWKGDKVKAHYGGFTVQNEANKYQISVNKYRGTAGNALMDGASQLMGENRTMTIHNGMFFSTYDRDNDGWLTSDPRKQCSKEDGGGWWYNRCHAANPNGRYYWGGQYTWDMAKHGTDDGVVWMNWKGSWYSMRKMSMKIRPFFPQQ
T1 sequence (P02679 27-453): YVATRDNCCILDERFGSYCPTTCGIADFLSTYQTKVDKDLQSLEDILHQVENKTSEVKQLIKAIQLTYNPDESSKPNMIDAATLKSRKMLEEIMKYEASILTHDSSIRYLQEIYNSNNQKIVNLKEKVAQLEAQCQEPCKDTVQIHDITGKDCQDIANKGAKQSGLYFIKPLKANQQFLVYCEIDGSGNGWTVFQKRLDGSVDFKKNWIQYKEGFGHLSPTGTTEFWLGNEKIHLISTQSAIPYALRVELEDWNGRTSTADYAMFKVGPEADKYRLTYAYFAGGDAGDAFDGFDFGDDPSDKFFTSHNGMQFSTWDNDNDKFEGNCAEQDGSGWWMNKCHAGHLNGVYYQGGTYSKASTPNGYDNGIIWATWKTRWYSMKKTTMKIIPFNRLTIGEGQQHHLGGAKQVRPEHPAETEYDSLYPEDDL
Assay: Fibrinogen ELISA assay
Assay type: binding
Settings: sandwich ELISA
Method: Fibrinogen ELISA Assay. To ensure similar immobilization levels of recombinant human ectodomain aIIbβ3 between the ELISA plate and integrin coupled magnetic beads, the wells of a 96-well micro plate (Nunc MaxiSorp) were incubated with the same aIIbβ3 concentration per surface area as during the preparation of the magnetic beads, 6.6×10^4 μg·mL^−1·c^−2. Each well was coated with aIIbβ3 or control proteins (BSA and β3−/− platelet lysate) by incubation of 6 μg/μL protein in binding buffer (TRIS buffered saline with 0.05% TWEEN-20 and 1 mM each of MgCl2, MnCl2 and CaCl2)) at 4° C. overnight. Incubation of 3% skim milk (ED Millipore) and 2% TWEEN-20 for 1 hour at 37° C. was used for blocking. The concentration of aIIbβ3 per surface area of bead used when coating SAM coated beads is 6.6×10^4 μg·mL^−1·cm^−2, therefore the wells of 96 well plates used were coated with the same density EDC/NHS quenching achieved by increase pH to 8.6. Bead concentration for synthesis: 6×10^9 beads·mL^−1; Integrin-bead reaction concentration=250 μg·mL^−1; Integrin Used=6.6×10^4 μg·mL^−1·cm^−2; Well Surface Area (50 μL)=0.93 cm^2; Concentration/wee for ELISA=6×10^4 μg·mL^−1 (6 μL/well in 50 μL total volume); Stock [αIIbβ3]=5×10^5 μg·mL^−1.
Fibrinogen binding. […] The OPD peroxidase reaction was stopped after 1 hour with 2 M H2SO4 and the absorbance was read at 492 nm. […]

integrin: Recombinant human ectodomain αIIbβ3 immobilized on 96-well ELISA plate at the same density as on the beads
CLOD (fibrinogen detection): 0.54 ± 0.07 µM
Kd (integrin on plate surface, blocking step, HRP labelled detection antibody): 2200 ± 400 nM
